Data from publication PMC13583000 (Nature Communications, 2026).

Target: the molecule itself
Assay: SEC

B1: Corynebacterium glutamicum citrate synthase with a C-terminal Strep tag (CgCS-Strep) (enzyme)
chain: MFERDIVATDNNKAVLHYPGGEFEMDIIEASEGNNGVVLGKMLSETGLITFDPGYVSTGSTESKITYIDGDAGILRYRGYDIADLAENATFNEVSYLLINGELPTPDELHKFNDEIRHHTLLDEDFKSQFNVFPRDAHPMATLASSVNILSTYYQDQLNPLDEAQLDKATVRLMAKVPMLAAYAHRARKGAPYMYPDNSLNARENFLRMMFGYPTEPYEIDPIMVKALDKLLILHADHEQNCSTSTVRMIGSAQANMFVSIAGGINALSGPLHGGANQAVLEMLEDIKSNHGGDATEFMNKVKNKEDGVRLMGFGHRVYKNYDPRAAIVKETAHEILEHLGGDDLLDLAIKLEEIALADDYFISRKLYPNVDFYTGLIYRAMGFPTDFFTVLFAIGRLPGWIAHYREQLGAAGNKINRPRQVYTGNESRKLVPREER
  stoichiometry N: 2
